Target: persulfide dioxygenase from Pseudomonas aeruginosa (PaPDO) (Pseudomonas aeruginosa)
Assay: SEC; Superdex 75 10/300, 20 mM Tris-HCl pH 8.0, 200 mM NaCl, 1 mL/min; calibrated with protein standards; elution at 10.8 mL

stoichiometry N: 2
Substance: persulfide dioxygenase from Pseudomonas aeruginosa (PaPDO) (enzyme)

From paper PMC12856154
